In patent US20060234940A1:

Target: recombinant human DP IV, wild type (human) (UniProt P27487)
Test: photometric assay, competition with the standard substrate GP-4NA

Chain of recombinant human DP IV, wild type (human) (P27487 other isoform, or with tags, fused parts or gaps): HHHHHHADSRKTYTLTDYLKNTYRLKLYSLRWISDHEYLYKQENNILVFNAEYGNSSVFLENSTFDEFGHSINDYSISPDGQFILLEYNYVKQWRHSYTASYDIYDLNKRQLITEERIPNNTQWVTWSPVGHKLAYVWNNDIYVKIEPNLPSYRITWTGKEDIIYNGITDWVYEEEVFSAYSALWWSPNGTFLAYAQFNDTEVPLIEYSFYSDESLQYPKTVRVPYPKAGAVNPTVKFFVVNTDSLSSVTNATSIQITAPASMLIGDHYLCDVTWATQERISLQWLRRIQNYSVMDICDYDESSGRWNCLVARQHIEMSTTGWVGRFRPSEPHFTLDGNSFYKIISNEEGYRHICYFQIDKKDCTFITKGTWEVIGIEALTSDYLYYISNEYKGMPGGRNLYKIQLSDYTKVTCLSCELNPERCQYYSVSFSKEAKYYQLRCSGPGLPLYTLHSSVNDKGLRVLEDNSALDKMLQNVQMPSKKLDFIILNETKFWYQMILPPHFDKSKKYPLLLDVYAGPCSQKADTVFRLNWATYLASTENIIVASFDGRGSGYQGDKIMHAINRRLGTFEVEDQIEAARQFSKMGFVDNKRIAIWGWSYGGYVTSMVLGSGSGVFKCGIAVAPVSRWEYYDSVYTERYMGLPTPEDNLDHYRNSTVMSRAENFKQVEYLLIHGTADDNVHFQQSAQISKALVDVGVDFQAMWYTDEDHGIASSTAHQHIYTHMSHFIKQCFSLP

Ki: 113 µM
Substance: PACAP-27 (from UniProt P18509 132-158) (peptide)
